This assay concerns the target 柯萨奇病毒A16型病毒样颗粒 (Coxsackievirus A16) (UniProt Q65900). Kind of assay: sandwich ELISA: rabbit anti-CV A16 VLP polyclonal serum (1:8000) as capture, CV A16 VLP titrated, mAb 10 ng/μL as detector; positive when OD450nm>0.15. For orientation: An ELISA detects its analyte on a solid surface through an enzyme-linked reagent.
Chain of UniProt Q65900 (Q65900 2-862): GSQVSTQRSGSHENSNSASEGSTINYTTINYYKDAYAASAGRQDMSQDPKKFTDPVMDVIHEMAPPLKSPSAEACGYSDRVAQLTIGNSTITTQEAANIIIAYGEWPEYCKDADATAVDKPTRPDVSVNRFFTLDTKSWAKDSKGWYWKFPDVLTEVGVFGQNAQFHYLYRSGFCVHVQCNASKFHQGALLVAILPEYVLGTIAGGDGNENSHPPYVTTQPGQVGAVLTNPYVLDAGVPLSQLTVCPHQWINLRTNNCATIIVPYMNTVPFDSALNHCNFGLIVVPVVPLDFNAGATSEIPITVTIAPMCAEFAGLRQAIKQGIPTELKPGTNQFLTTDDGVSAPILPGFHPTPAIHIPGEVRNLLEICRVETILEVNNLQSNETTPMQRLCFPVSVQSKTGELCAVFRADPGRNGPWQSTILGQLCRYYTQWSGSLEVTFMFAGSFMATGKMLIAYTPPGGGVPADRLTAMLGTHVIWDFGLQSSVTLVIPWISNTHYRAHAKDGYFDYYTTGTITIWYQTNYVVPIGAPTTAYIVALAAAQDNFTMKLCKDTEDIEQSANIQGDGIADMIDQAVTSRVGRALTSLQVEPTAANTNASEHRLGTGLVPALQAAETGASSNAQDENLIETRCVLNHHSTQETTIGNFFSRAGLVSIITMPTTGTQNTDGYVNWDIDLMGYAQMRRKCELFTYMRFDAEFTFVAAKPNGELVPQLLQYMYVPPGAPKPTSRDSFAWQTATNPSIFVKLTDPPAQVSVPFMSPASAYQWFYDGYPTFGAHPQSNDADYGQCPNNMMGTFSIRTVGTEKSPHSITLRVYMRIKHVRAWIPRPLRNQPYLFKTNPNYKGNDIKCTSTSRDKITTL

B1: 单克隆抗体3H5 (antibody, mouse IgG1, kappa, V domains shown)
VH: EVKLEESGGGLVQPGGSMKLSCVGSGFTFSNYWMNWVRQSPDKGLEWVAEIRSKSNNYATHYAESVKGRLTISRDDSKSGVYLQMNNLRPEDTGIYYCTRSGAYWGQGTLVTVSA
VL: QIVLTQSPAIMSASPGEKVTMTCSASSSVSYIYWYQQKPGSSPRLLIYDTTRLASGVPVRFSGSGSGTSYSLTISRMEAEDAATYYCQHWNSYPFTFGSGTKLEIKR
On to B1, for which the 最低检出限度 worked out at 62.5 ng/mL.

The values are drawn from patent publication CN116284353A.
